Data taken from patent publication US20250073202A1, “METHODS TO TREAT RENAL DISORDERS USING CALCIUM CHANNEL INHIBITORS” (The Trustees of Indiana University, priority 2018, published 2025).

B1: IL-17Rc: the IL17Rc receptor antagonist (R&D Systems), 150 ng/day i.p. (protein, UniProt Q8NAC3 21-538, looked up)
extracellular domain: LERLVGPQDATHCSPVSLEPWGDEERLRVQFLAQQSLSLAPVTAATARTALSGLSGADGRREERGRGKSWVCLSLGGSGNTEPQKKGLSCRLWDSDILCLPGDIVPAPGPVLAPTHLQTELVLRCQKETDCDLCLRVAVHLAVHGHWEEPEDEEKFGGAADSGVEEPRNASLQAQVVLSFQAYPTARCVLLEVQVPAALVQFGQSVGSVVYDCFEAALGSEVRIWSYTQPRYEKELNHTQQLPDCRGLEVWNSIPSCWALPWLNVSADGDNVHLVLNVSEEQHFGLSLYWNQVQGPPKPRWHKNLTGPQIITLNHTDLVPCLCIQVWPLEPDSVRTNICPFREDPRAHQNLWQAARLQLLTLQSWLLDAPCSLPAEAALCWRAPGGDPCQPLVPPLSWENVTVDKVLEFPLLKGHPNLCVQVNSSEKLQLQECLWADSLGPLKDDVLLLETRGPQDNRSLCALEPSGCTSLPSKASTRAARLGEYLLQDLQSGQCLQLWDDDLGALWACPMDKYIHKR
modifications: extracellular domain

Columns and labels:
[1] = test system: AKI-primed CD4+ cells; assay: In vitro stimulation of AKI-primed kidney CD4+ cells with Ang II and elevated Na+, IL17 response; assay type: cell-based, rat; conditions: inhibitor 10 μM; Ang II 10^-7 M and 170 mM Na+; 12-14 hours; cells 7 days post I/R
Procedure: Total RNA was obtained from kidney using Trizol and the Zymogen RNA extraction kit and cDNA was prepared using MMLV enzyme (Invitrogen, Carlsburg, CA). Quantitative real time PCR (qPCR) using gene specific primers was performed using ABI 7500 (Applied Biosystems, Foster City, CA). mRNA values were calculated using 2^−ΔΔCt. Specific primers sequences for IL-6 (catalog #Rn01410330_m1), Kim-1 (#Rn00597703_m1) and IL17 (Rn01757168_m1) were purchased from ThermoFisher (Waltham, MA).
(§1) To evaluate protein expression of IL17 or Orai1, Orai2 or Orai3, cells were restimulated with PMA and ionomycin for 6 hours in the presence of monensin (Golgistop, 1 μg·ml, BD Biosciences) permeabilized with saponin ([…]) and stained with relevant antibody. Cells were scanned using flow cytometry (FACSCalibur, BD Biosciences, San Jose, CA) and scans were analyzed using Flowjo software (Tree Star, Ashland, OR).
CD4+T cells were isolated using the MACS Pan-T cell microbead separation kit (Miltenyl, Glabach, Germany). T cells were stimulated with plate bound anti-CD3 (precoated with 2 μg/mL) and soluble anti-CD28 (1 μg/mL). Cells (2.5×10^5 in 0.25 ml) were incubated 12-14 hours at 37° C. in RPMI medium supplemented with 10% FBS (Invitrogen) in a 48-well plate. Cells were challenged with Ang II (Sigma, 10^−7M) and raising the extracellular Na+ from 140 mM to 170 mM, using a 1 M NaCl solution. Calcium channel inhibitors 2ABP (10 μM, Sigma) AnCoA4 (10 μM, Millipore, Burlington, MA) and YM58483/BTP2 (10 μM) were included to evaluate effects on IL-17.

[2] = test system: AKI-primed CD4+ cells; assay: Fura-2 imaging of intracellular Ca2+ responses in AKI-primed CD4+ cells; assay type: cell-based, rat; conditions: superfusate with Ang II and elevated Na+; to levels similar to sham
Procedure: To assess Ca^2+ responses, fura2 imaging was performed. Briefly, isolated CD4+ T cells were loaded with fura-2AM (2.5 μM, Sigma, St. Louis, MO) for 45 min, washed, placed on poly-lysine (Sigma) coated coverslips and placed in a superfusion chamber with physiological salt solution (PSS) containing 2 mM Ca^2+. The chamber was mounted on an inverted epifluorescence microscope and signal measured with alternating excitation at 340 and 380 nm and emission at 510 nm using the InCa^2+-imaging system (Intracellular Imaging Systems, Cincinnati, OH). Data were acquired at 1.5 Hz and representative tracings were smoothed to the 10 nearest neighbor points using GraphPad Prism. For analysis, an increase in signal intensity of >1 standard deviation from baseline was considered a positive response. Frequency of responding cells was determined from an average 53±19 cells for each animal.

[3] = test system: human blood CD4+ cells; assay: In vitro stimulation of human blood CD4+ cells from AKI patients with elevated sodium, IL17 response; assay type: cell-based; conditions: 170 mM Na+, overnight (~12 hours)
Procedure: For in vitro stimulation of human blood cells, primary T cells were isolated from fresh blood using Straight whole blood CD4 kit from Miltneyli Biotech (Miltenyli, San Diego, CA) according to manufactures' protocol. CD4+T cells were plated at a density of 1×10^6 cells/mL in RPMI medium supplemented with FBS. Cells were stimulated with human anti-CD3/CD28 dynabeads (Gibco; Catalogue no 11161D) along with labeled treatment overnight (˜12 hours). T cells were harvested and incubated with monensin for 6 hours, prior to staining for IL-17 (Table 4).

[4] = test system: renal ischemia reperfusion injury; assay: Bilateral renal ischemia/reperfusion (I/R) injury in rats, 24 hours after reperfusion (Study II); assay type: in vivo, rat
Procedure: All studies used male Sprague-Dawley rats (250-300 g) that were purchased from Envigo (Indianapolis, IN). Rats were anesthetized with a cocktail of ketamine (100 mg·kg^−1, KetoVed, Vedco Inc, St. Joseph, MO) and xylazine (50 mg·kg^−1, AnaSed, Lloyd Inc, Shenandoah IA). Rats were placed on a heated surgical table to maintain body temperature. A midline incision and either unilateral (left) or bilateral renal ischemia (as indicated in Results) was induced by applying micro-aneurism clamps on the renal pedicles for a period of 40 min. Re-establishment of perfusion was verified by visual examination following removal of the clamps. Rats were provided post-operative analgesia using buprenorphine-SR (1 mg·kg^−1).
Rats were allowed to recover for various periods of time as described in the Results. In Study I, lymphocytes were studied in vitro after recovery for either 2 or 7 days following I/R or sham surgery for evaluation of function in vitro or for FACS analysis. In Study II, the effect of SOCE on kidney injury was studied with the inhibitor YM58483/BPT2 (N-[4-[3,5-Bis(trifluoromethyl)-1H-pyrazol-1-yl]phenyl]-4-methyl-1,2,3-thiadiazole-5-carboxamide; Tocris/Bio-Techne Minneapolis, MN). Rats were pretreated p.o. 2-3 hours prior to surgery with YM58483.BPT2 (1 mg·kg^−1) in sugar-free chocolate pudding following dilution in 100% EtOH, at, a dose previously shown to affect T cell activation in rats. In some experiments, rats were also treated with the IL17Rc (150 ng/day i.p; R&D Systems). In addition, one experiment utilized a model of rhabdomyolysis, induced by injection of 50% glycerol (10 ml/kg) into the hindlimb muscle of rats following 16 hours of water restriction.
To measure creatinine, tail blood was collected in heparin containing tubes and centrifuged to collect plasma. Plasma creatinine was measured using a Pointe Scientific Analyzer and Creatinine Assay reagents using methods outlined by the manufacturer (Pointe Scientific, Canton MI). Urine was collected for 24 hours by placing rats in metabolic cages and urine volume was determined gravimetrically. Urine creatinine was measured using a colorimetric assay adopted for microplate readers. Creatinine clearance was measured using UCr*V/PCr. […]
Freshly harvested kidneys were minced and digested in liberase (2 μg/ml. Roche, Indianapolis IN) for 15 min at 37° C. using Gentle MACs (Miltenyli, San Diego, CA). The digested tissue was filtered through a 100-μm mesh and washed with RPMI containing 10% fetal bovine serum (Invitrogen). Mononuclear cells were isolated using Percol (Sigma) density gradient centrifugation.
as §1
The effect of SOCE on early ischemic kidney injury was studied with the inhibitor YM58483/BPT2 (N-[4-[3,5-Bis(trifluoromethyl)-1 H-pyrazol-1-yl]phenyl]-4-methyl-1,2,3-thiadiazole-5-carboxamide; Tocris/Bio-Techne Minneapolis, MN). Rats were pretreated 2-3 hours prior to surgery, p.o. in sugar-free chocolate pudding following dilution in 100% EtOH, at 1 mg·kg^−1, a dose previously shown affect T cell activation in rats. To evaluate if SOCE influences Th17 cells in AKI, rats were fed YM58483/BPT2 approximately 2 hours prior to […] and reperfusion. […] YM58483/2BPT2 also attenuated the infiltration of total CD4+ and CD8+ T-cells, B-cells, and dendritic cells following I/R (FIGS. 3C, 3D, 3E, and 3F).

[5] = 24 hours following ischemia reperfusion, mean ± S.E.

Row | Molecule | increase in IL17+ cells (IL17 protein, FACS) [1] | increase of IL17 mRNA [1] | percentage of Ca2+-responding cells [2] | IL17 response to elevated extracellular sodium [3] | infiltration of total CD4+ T-cells in kidney (vs vehicle) ([4]; 24 hours following I/R) | kidney CD4+/IL17+ cells (vs vehicle) ([4]; 24 hours following I/R) | CD4+ renal lymphocyte content [4, 5] [cells/gram] | CD4+/IL-17+ cells [4, 5] [cells/gram] | CD8+ cells renal lymphocyte content [4, 5] [cells/gram] | CD8+IL-17+ cells [4, 5] [cells/gram] | Serum Creatinine [4, 5] [mg/dL] | Total IL-17+ cells [4, 5] [cells/gram]
1 | COc1cc2c(cc1-c1coc3c4c(ccc3c1=O)OC(C)(C)C=C4)OCO2 [AnCoA4] | completely blocked | completely blocked | significantly attenuated | inhibited | – | – | – | – | – | – | – | –
2 | NCCOB(c1ccccc1)c1ccccc1 [2-ABP, 2-aminoethoxydiphenyl borate] | completely blocked | completely blocked | – | – | – | – | – | – | – | – | – | –
3 | B1 | – | – | – | – | significantly reduced | significantly reduced | 19229 ± 3175 | 1567 ± 294 | 4356 ± 559 | 251 ± 118 | 3.96 ± 1.2 | 8447 ± 1753
